Read-outs that look alike come from different tables or passages of the source.
T1: H-NS wild type (UniProt P0ACF8 1-137)
T1 sequence: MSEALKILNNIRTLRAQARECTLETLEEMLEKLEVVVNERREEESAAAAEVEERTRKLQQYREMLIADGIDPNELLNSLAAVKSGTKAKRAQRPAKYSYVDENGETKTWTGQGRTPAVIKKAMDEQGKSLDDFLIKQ

B1: 53 bp ME (WT) (dsDNA)
DNA 1: CCCTGCAGGTCGACTGTCTCTTATACACATCTTGAGTGAGTGAGCATGCATGT
DNA 2: ACATGCATGCTCACTCACTCAAGATGTGTATAAGAGACAGTCGACCTGCAGGG
B2: 20 bp ME (dsDNA)
DNA 1: CTGTCTCTTATACACATCTT
DNA 2: AAGATGTGTATAAGAGACAG

Legend:
Experiment in all cases: EMSA
[1] = target: Tn5 transposase delta369 EK/MA (Tn5, UniProt Q46731 1-368, E54K;M56A)
[2] = target: H-NS P116S;Tn5 transposase delta369 EK/MA (Escherichia coli?;Tn5, UniProt P0ACF8;Q46731 1-137;1-368, P116S|E54K;M56A)
[3] = target: T2, H-NS wild type;Tn5 HA transposase (Escherichia coli?;Tn5, UniProt P0ACF8;Q46731 1-137;1-476, |E54K;M56A;L372P)
[4] = target: H-NS wild type;Tn5 transposase delta369 EK/MA (Escherichia coli?;Tn5, UniProt P0ACF8;Q46731 1-137;1-368, |E54K;M56A)
[5] = target: T2, H-NS wild type;Tn5 HA transposase; remark: listed apart in the source
Tn5 HA transposase [6] = target: T3, Tn5 HA transposase (Tn5, UniProt Q46731 1-476, E54K;M56A;L372P)
[7] = target: T2, H-NS wild type;Tn5 HA transposase; remark: listed apart in the source
H-NS wild type = target: T1, H-NS wild type
Tn5 HA transposase [8] = target: T3, Tn5 HA transposase; remark: listed apart in the source

Binder | binding result [1] | binding result [2] | binding signal [3] | binding result [4] | binding signal [5] | binding result (Tn5 HA transposase [6]) | binding result [7] | binding result (H-NS wild type) | binding result (Tn5 HA transposase [8])
B1 | binds | no binding | 11 fold increase | binds | < 2 fold increase | binds | – | – | –
B2 | – | – | – | – | – | – | binds | no binding | binds

From publication PMC2632911
